Measured values as given in PMC11386428.

Experiments:
[1] = biological target: tau_(1N4R), full-length 1N4R tau, labelled with Alexa Fluor 488 (human (by the printed UniProt entry)); experiment: fluorescence correlation spectroscopy (FCS); ~20 nM fluorescent protein (Alexa 488-labelled tau construct or eGFP) with unlabelled αS seeds at 20, 60 or 100 nM (monomer units); 20°C; 50 mM Na2HPO4, 50 mM NaCl pH 7.0; two-component diffusion fit, medians of type III curves
[2] = biological target: tau4R, the microtubule-binding region with R1-R4, labelled with Alexa Fluor 488 (human (by the printed UniProt entry)); experiment: as above

Substance “αS_(1-100) seeds (sonicated fibrils of N-terminally acetylated αS_(1-100)) (from UniProt P37840 1-100) (complex)” has a Q (brightness of bound tau relative to monomer tau) at 20 nM αS (1-100) seeds [1] of 2.3, a Q (brightness of bound tau relative to monomer tau) at 60 nM αS (1-100) seeds [1] of 2 and a Q (brightness of bound tau relative to monomer tau) at 100 nM αS (1-100) seeds [1] of 2.7. The median fB (fraction of tau with τD2) at 20 nM αS (1-100) seeds [1] was 0.055, the median fB (fraction of tau with τD2) at 60 nM αS (1-100) seeds [1] was 0.053 and the median fB (fraction of tau with τD2) at 100 nM αS (1-100) seeds [1] was 0.16. The median type III τ (D2app) at 20 nM αS (1-100) seeds [1] was 2.8 ms, the median type III τ (D2app) at 60 nM αS (1-100) seeds [1] was 2.3 ms and the median type III τ (D2app) at 100 nM αS (1-100) seeds [1] was 2.2 ms. It also gave a Q (brightness of bound tau relative to monomer tau) at 20 nM αS (1-100) seeds [2] of 1, a Q (brightness of bound tau relative to monomer tau) at 60 nM αS (1-100) seeds [2] of 1 and a Q (brightness of bound tau relative to monomer tau) at 100 nM αS (1-100) seeds [2] of 1. It also gave a median fB (fraction of tau with τD2) at 20 nM αS (1-100) seeds [2] of 0.023, a median fB (fraction of tau with τD2) at 60 nM αS (1-100) seeds [2] of 0.11 and a median fB (fraction of tau with τD2) at 100 nM αS (1-100) seeds [2] of 0.11. The median type III τ (D2app) at 20 nM αS (1-100) seeds [2] was 2.1 ms, the median type III τ (D2app) at 60 nM αS (1-100) seeds [2] was 1.8 ms and the median type III τ (D2app) at 100 nM αS (1-100) seeds [2] was 2.8 ms.
